For one molecule, Ki results are on record in PMC10199020 (Nature Communications, 2023).

The target of the experiment is T1, NL-IL23R co-expressed with IL12Rβ1 (IL-23 receptor on cells) (UniProt Q5VWK5 24-629; P42701 24-662).
T1 construct: also called NL-IL23R and IL12Rβ1; NL-IL23R with IL12Rβ1; source: HEK293T, transiently transfected, on living cells
The experiment is described as follows: FRET or BRET; NanoBRET competition on living transfected HEK293T cells; 300 pM IL23-TMR displaced by unlabelled antagonist (concentration series or a single concentration); 1 h at 37 °C in HBSS with 1 mg/mL BSA. The settings on record: one partner purified. A general note: BRET reads energy transfer from a luciferase to a nearby fluorophore.

T1 sequence (Q5VWK5 24-629, chain 1 of 2, other chains not shown): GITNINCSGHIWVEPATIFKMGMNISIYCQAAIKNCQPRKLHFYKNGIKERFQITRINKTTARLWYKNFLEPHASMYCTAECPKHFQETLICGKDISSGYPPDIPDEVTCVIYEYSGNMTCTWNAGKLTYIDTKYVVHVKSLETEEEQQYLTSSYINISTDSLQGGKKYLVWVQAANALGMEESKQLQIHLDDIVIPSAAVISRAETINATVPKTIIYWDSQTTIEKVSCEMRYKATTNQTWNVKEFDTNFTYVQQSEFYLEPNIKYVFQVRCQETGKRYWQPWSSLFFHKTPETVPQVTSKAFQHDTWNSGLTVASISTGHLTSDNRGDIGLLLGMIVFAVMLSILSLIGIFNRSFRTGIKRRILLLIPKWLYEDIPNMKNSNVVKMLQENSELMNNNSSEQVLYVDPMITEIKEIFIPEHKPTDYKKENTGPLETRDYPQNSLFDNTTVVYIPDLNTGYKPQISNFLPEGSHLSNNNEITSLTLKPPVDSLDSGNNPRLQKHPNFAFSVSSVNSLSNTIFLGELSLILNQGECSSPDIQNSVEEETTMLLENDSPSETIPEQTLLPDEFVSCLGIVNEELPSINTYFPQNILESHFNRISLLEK

B1: IL12p40 (ligand, UniProt P29460 23-328, looked up)
chain: IWELKKDVYVVELDWYPDAPGEMVVLTCDTPEEDGITWTLDQSSEVLGSGKTLTIQVKEFGDAGQYTCHKGGEVLSHSLLLLHKKEDGIWSTDILKDQKEPKNKTFLRCEAKNYSGRFTCWWLTTISTDLTFSVKSSRGSSDPQGVTCGAATLSAERVRGDNKEYEYSVECQEDSACPAAEESLPIEVMVDAVHKLKYENYTSSFFIRDIIKPDPPKNLQLKPLKNSRQVEVSWEYPDTWSTPHSYFSLTFCVQVQGKSKREKKDRVFTDKTSATVICRKNASISVRAQDRYYSSSWSEWASVPCS
notes: source: bought: Peprotech (CHO produced)
The Ki is the equilibrium dissociation constant of an inhibitor or competing ligand from its target. A high value points to a looser hold on the target. Molecule B1 showed a Ki of 12.4 nM.
